Molecular target: IE-3 fragment antigen-binding (Fab) region, recombinant, labelled
Test: MST

B1: mouse ZP2 N-terminal ZP-N1 domain (mZP2-N1), His-tagged (domain or fragment)
chain: VSLPQSENPAFPGTLICDKDEVRIEFSSRFDMEKWNPSVVDTLGSEILNCTYALDLERFVLKFPYETCTIKVVGGYQVNIRVGDTTTDVRYKDDMYHFFCPAIQ
  fold higher affinity than MBP-mZP2(T103-Q138): 30 fold
